Experimental data reported in patent CN110974958A (BEIJING DONGFANG BIOTECH CO LTD, dated 2020).
Substitutions are numbered along the chain they refer to.

B1: BH2-B11 全抗体 (full antibody, human IgG1/kappa) (antibody, V domains shown)
VH: EVQLVESGGGLVQPGGSLRLSCAASGLTWSDSYKHWVRQAPGKGLEWVHWNSTYGGSTYYADSVKGRFTISADTSKNTAYLQMNSLRAEDTAVYYCARRHFASTWDYWGQGTLVTVSS
VL: DIQMTQSPSSLSASVGDRVTITCRASQNIHNSLAWYQQKPGKAPKLLIYGASSLESGVPSRFSGSGSGTDFTLTISSLQPEDFATYYCQQERRVPWTFGQGTKVEIKR
notes: Full antibody expressed in HEK293E from vector pTSE
B2: AC9-B11 全抗体 (full antibody, human IgG1/kappa) (antibody, V domains shown)
VH: B1 VH with L27C, Y33W, K34D, H49D, W50Y, N51E, F101W, A102N, S103A, W105F
VL: B1 VL
notes: as for B1
B3: AH10-B11 全抗体 (full antibody, human IgG1/kappa) (antibody, V domains shown)
VH: EVQLVESGGGLVQPGGSLRLSCAASGWTLSDSLQHWVRQAPGKGLEWVGFQSAYGGSTYYADSVKGRFTISADTSKNTAYLQMNSLRAEDTAVYYCARRHYYTAWDYWGQGTLVTVSS
VL: B1 VL
notes: Full antibody expressed in HEK293E from vector pTSE; also called AH10-811
B4: BH2-E3 全抗体 (full antibody, human IgG1/kappa) (antibody, V domains shown)
VH: B1 VH
VL: B1 VL with N28S, S32Y, G50S, S53N, E55P, E91G, R92L, R93H, V94T, W96P
notes: as for B1
B5: AH10-E3 全抗体 (full antibody, human IgG1/kappa) (antibody, V domains shown)
VH: B3 VH
VL: B1 VL with N28S, S32Y, G50S, S53N, E55P, E91G, R92L, R93H, V94T, W96P
notes: as for B1
B6: AC9-E3 全抗体 (full antibody, human IgG1/kappa) (antibody, V domains shown)
VH: B1 VH with L27C, Y33W, K34D, H49D, W50Y, N51E, F101W, A102N, S103A, W105F
VL: B1 VL with N28S, S32Y, G50S, S53N, E55P, E91G, R92L, R93H, V94T, W96P
notes: as for B1

target: T1, PD-L1 (UniProt Q9NZQ7 19-238, limits assumed); test: ELISA, PD-L1 coated 100 ng/well, full antibody titrated from 1 ug/ml, Anti-Human Fc-HRP
T1 construct: Coated antigen of experiments 1 and 3; also called 程序性死亡分子1配体; CD274
T1 sequence (Q9NZQ7 19-238 limits assumed): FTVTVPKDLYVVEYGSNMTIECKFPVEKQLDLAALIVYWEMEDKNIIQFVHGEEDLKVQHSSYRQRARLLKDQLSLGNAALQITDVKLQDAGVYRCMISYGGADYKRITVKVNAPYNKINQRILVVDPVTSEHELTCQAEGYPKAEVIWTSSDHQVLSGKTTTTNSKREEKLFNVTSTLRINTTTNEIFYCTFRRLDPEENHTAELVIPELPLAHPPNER

Binder | EC50
B1 | 0.535 ng/mL
B2 | 0.574 ng/mL
B3 | 1.43 ng/mL
B4 | 1.23 ng/mL
B5 | 1.91 ng/mL
B6 | 2.17 ng/mL

target: T1, PD-L1; test: cell-based or functional assay

Binder | EC50(ng/ml), 混合淋巴细胞反应(MLR), CD4+ T细胞增殖 (cck8)
B1 | 6.73 ng/mL
B2 | 7.58 ng/mL
B3 | 9.88 ng/mL
B4 | 7.71 ng/mL
B5 | 11.4 ng/mL
B6 | 11.9 ng/mL

target: T2, PD-L1-Fc (UniProt Q9NZQ7 19-238, limits assumed); test: competition ELISA, PD-L1-Fc coated 200 ng/well, competitor PD-1-His 5 ug/ml, anti-His-HRP
T2 construct: not shown: Fc part
T2 sequence (Q9NZQ7 19-238 limits assumed): as above

Binder | IC50
B1 | 61.2 ng/mL
B2 | 82 ng/mL
B3 | 108 ng/mL
B4 | 92.7 ng/mL
B5 | 136 ng/mL
B6 | 138 ng/mL
